# Results as given in patent US20180051071A1.
# B1: IBL-102 antibody (antibody, mouse IgG1, kappa, V domains shown)
# VH: EVQLQQSGPELVKPGASVKIFCKASGYTFTDYNMDWVKQSHGKRLEWIGDINPNTGVTIDNPKFKGKATLTVDESSSTVYMELRSLSSEDTAVYYCARLPDNYVMDYWGQGTSVTVSA
# VL: DVVMTQTPLSLPVSLGDQASISCRCSQSLVHRNGNTNLHWYLQKSGQSPKLLIYKVSNRFSGVPDRFSGSGSGTDFTLKISRVEAEDLGVYFCSQSTYVPLTFGVGTKLELKR
# What was measured:
# Assay in all cases: sandwich EIA: 82E1 capture, HRP-labelled IBL-102; antigen 4000 pg/mL read on the E22P-Aβ42 standard curve
# [1] = biological target: A21P-Aβ42 (Homo sapiens (Human)) (UniProt P05067)
# [2] = biological target: D23P-Aβ42 (Homo sapiens (Human)) (UniProt P05067)
# [3] = biological target: M35P-Aβ42 (Homo sapiens (Human)) (UniProt P05067)
# [4] = biological target: G25P-Aβ42 (Homo sapiens (Human)) (UniProt P05067)
# [5] = biological target: V24P-Aβ42 (Homo sapiens (Human)) (UniProt P05067)
# [6] = biological target: E22V-Aβ42 (Homo sapiens (Human)) (UniProt P05067)
binder,measurement,setting,value
B1,cross-reaction rate,[1],0.27%
same,cross-reaction rate,[2],0.5%
same,cross-reaction rate,[3],0.68%
same,cross-reaction rate,[4],0.53%
same,cross-reaction rate,[5],0.33%
same,cross-reaction rate,[6],0.28%
